# Measurements published in patent US20160289684.
# Key:
# [1] = tested on: T1, GST fusion protein carrying the SP2 motif of NFAT
# T1 sequence: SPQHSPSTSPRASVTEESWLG
# [2] = biological target: T2, GST fusion protein containing the N-terminal regulatory domain (amino acids 1-319) of NFAT2 (UniProt O95644)
# T2 sequence: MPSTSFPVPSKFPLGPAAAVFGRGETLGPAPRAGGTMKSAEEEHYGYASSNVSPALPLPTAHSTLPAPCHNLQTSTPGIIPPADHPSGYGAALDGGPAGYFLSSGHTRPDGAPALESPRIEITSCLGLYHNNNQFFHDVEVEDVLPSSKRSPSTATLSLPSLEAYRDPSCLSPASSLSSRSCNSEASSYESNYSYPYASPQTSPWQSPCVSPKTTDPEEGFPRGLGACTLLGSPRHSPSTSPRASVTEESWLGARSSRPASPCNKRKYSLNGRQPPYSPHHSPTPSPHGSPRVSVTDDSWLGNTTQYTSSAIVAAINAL
# [3] = tested on: T3, GST fusion protein carrying the SP3 motif of NFAT
# T3 sequence: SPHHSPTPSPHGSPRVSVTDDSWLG
# [4] = biological target: T4, GST fusion protein containing the NFAT2 phosphorylation site S161 flanked with 9-11 amino acids (UniProt O95644)
# T4 sequence: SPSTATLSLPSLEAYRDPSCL
# [5] = biological target: T5, GST fusion protein containing the NFAT2 phosphorylation site S151 flanked with 9-11 amino acids (UniProt O95644)
# T5 sequence: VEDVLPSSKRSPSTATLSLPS
# [6] = biological target: T6, GST fusion protein containing the NFAT2 phosphorylation site S324 flanked with 9-11 amino acids (UniProt O95644)
# T6 sequence: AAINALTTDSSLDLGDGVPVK
substance,measurement,setting,value
IKKε purified from 293T cells,in vitro kinase assay,[1],weakly the SP2 site
same,in vitro kinase assay,[2],purified IKKε was sufficient to phosphorylate the N-terminal regulatory domain (amino acids 1-319) of NFAT2 by an in vitro kinase assay
same,in vitro kinase assay,[3],IKKε efficiently phosphorylated the SP3 motif
same,in vitro kinase assay,[4],"peptides containing three serines, except the peptides containing S^117, were phosphorylated by IKKε in vitro"
same,in vitro kinase assay,[5],"peptides containing three serines, except the peptides containing S^117, were phosphorylated by IKKε in vitro"
same,in vitro kinase assay,[6],"peptides containing three serines, except the peptides containing S^117, were phosphorylated by IKKε in vitro"
